In the domain aggregation screens of Martell et al. (2025):

Assay: soluble fraction after stress (log2 fold change); higher = more stays soluble; pooled small domains, quantitative proteomics
Conditions: stress: 75 degC
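Also: 20 min heating vs room temperature control held 20 min.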

| Sequence | soluble fraction (log2) |
| --- | --- |
| HMEKYIVEAEEQGKRLDMYISSKDEELTRTSAQRLIEQGDILVNNKKVKVAYKVSEGDIIAVEKQ | -0.0711 |
| HMELDLPLEELGLSTRVLHSLKEEGIESVRALLALNLKDLKNIPGIGERSLEEIKEALEKKGFTLK | -0.103 |
| HMELEENTERVLNILIENDIISENDIAEKLEVKINGARKALYKLKEVGFVEYTKERDEEKKWWYIYFWKLN | -0.132 |
| HMELEKIRPDLDGLEIMAILGISPSPIVGRAYQYLLDLRMDRGPLGPDAAKAELLNWWSLNQPK | -1.66 |
| HMELGRQDSAQLGRWAAGILAKNGKKITGRTMEFFLSRTGDDMENISSELEKLISYTLGREVITEEDIEAV | -0.263 |
| HMELGWYVRLRRRELGLSVTALAEKAGMSQSYLSQIETGDRGNPSPESLRSLAEALEVSPRELESLV | -2.82 |
| HMELMKPPGYWQSLENAIYESKKVIKEHGFDTLPSSNKLRELDYHGLSRAISVHHSGFPNFREIMNQELGI | -0.00652 |
| HMELNDEELIKGIQELLTKIGYDPGEINGVLGIKTSSAISAFQQSRNKAITGEADLDLLVQLQIELRKITT | -1.86 |
| HMELNGVSETAKSVYSIILNNSSTVDDIVIKTKLPAAKVMQALTELELNDAVERKSGGVYALP | 0.0577 |
| HMELPADLATVLSVDDIRAIALAEVPGSTITGVELEREEGVLVYKVKFNDGSYKLYDANTGELV | 0.105 |
| HMELPPLEPIDRILVVQQPINIREQPGVLAKKIGRVSSGETLTILAKVSGQDWYFVETDNGGRGYVFKRV | -1.15 |
| HMELQYSQEIEEAQKILENLGLYRGEIDGINGINTKSAIREFQRKSGLVVDGILGPNTTNALSKGSDAYIT | 0.0481 |
| HMELVQIIGNNIRDLMTTRSVTITDLANYLNVSRQTLQNYLRGSNIIDSVKLVAVSDFFDVPVESLLQSK | -1.45 |
| HMEMGNKIKELRTKLGITQEELSKTLNVSSQAVSKWENGGLPDLELIPEIAKYFNVTTDYLFDIK | -0.187 |
| HMEMKVIPFNQMTRDQFDQLDRFLGRLAAAQAMGSLRLTKAQQNYFLNQVKQLDLYRKRILN | -1.96 |
| HMEMTSREIIKRLEEDGWYHVKTTGDHYQMKHPTKPGKVTIVHPAKDLSIGTLRSIEKQSGVRL | -0.18 |
| HMEMVSMPGLTGSTLEFATKTLTENELKYEVVYIVDASAESGLIIRTYPTEGEMVSKKTSTIYLYIKE | -3.4 |
| HMENDGQFLRAEREKYGLTLTDIYEHTHIPIKKLKAYEMWEEEMPPRTRALLELYFDQVAFEYDS | -0.862 |
| HMENDPYEILGIARSASDDEIKAKYRALTRENHPDILMAKGVPQEFIDLANEKMAVINAAYDKIEKER | 0.407 |
| HMENEDMTGDIRVIDYIRNVAEYIQTTKGQASASQMLDRFLFPPELQYTPLDKLSGGEQRRLYLLKVLMEA | 0.0433 |
| HMENEFEAYSDGSSIQLNDPSKATYVVFDRQGRLLHLFQNHSLSSLSIERKNQILIITRETADGVSVKKIV | -0.53 |
| HMENEIPVPELVGMSEADAAAKLASLGLERDTQREATADEESVGKVLRQEPTPGEYVDEGHKVTIWVGE | 0.184 |
| HMENFSTLFSRLKEERGLSNKQISSFTGAPIKEVKKWESGMGIPTEKRIVAALEGILGSEISKAI | -0.125 |
| HMENHILIIDDDLMLLKTAEEILSDQYNVSVAKSGIQALNLLNKNIIPDLILLDIDMPQMDGYETL | -0.0633 |
| HMENIIFDIGFHKGEDTLFYLLKGYRVIAVDADPDLINEWQNIFKKYIENGKLLLLNYVISDT | -1.29 |
| HMENISVESKMKLLLKSLKTRDFISLPELVLKGESKLAISVILVAALELNRKGYIEVVQAEQFGEIYFKNT | -0.173 |
| HMENKVLVITEEEKGKRLDVYLAAALEVSRSYAQQLIQGEDVVVNDKQVKANYRLSEGDVVQVQLD | 1.01 |
| HMENLIEELTAKNKEYIHSVTKQLILVGKSDEEVKEILNDILPQIIEGQKSGIIARKLLGAPTEFVSQYQP | -0.269 |

| Sequence | soluble fraction (log2) |
| --- | --- |
| HMENLQLQQLVKGLPEKMQEIVILRFSQELTMREIADIVNLPMRTVQSQLRLALKILKKEMG | -0.682 |
| HMENLSFNINSEEEGQRIDKYLSVMIEGKSRSFVQGLIEEKKVKANSKVIKSNYKLKKGDFIEVEVPEPV | 0.289 |
| HMENLSGNDIKYLRKKYNLTQKELADALGLQKFGDRTIRRWEAEETHPSKLEQSSIQSFFNSLK | -0.0716 |
| HMENLTLVIGNKLKNIRNSRNLSLDDVAELTGVSKAMLGQIERGKSNPTVSTLWKISTGLRVSFSSFIDE | -3.44 |
| HMENLVPVVVATTNIEPRTQITDAMVKVEQIPALGRNESMLEDPALVVGGYATGKIYAGQSFIQPMVSK | 0.351 |
| HMENNIILNYVKDNLNITEKDAKDLIELLGSDYYHIKNETNKIAAFLDGQPYSFEKIKNLISIDKEY | 0.0409 |
| HMENPLETYYSQWVSAIKREHPEASFVKDTDGKYYVEGLTKNRLAVIYENPHLVRLVNATTNLHVE | -0.567 |
| HMENPVPVIITDQNFQPLLWKNVGVPTDTIFHELSPENQKKLENLMKTMVQMPLTDDGRISGYAYYSK | 0.0767 |
| HMENQFNDWSLTPSEKEVALFMLKGLSTQEIAAARNTKEKTVRQQASAVYAKSQLDGRYALAAWFFEDI | -0.702 |
| HMENQMIIYIDENDENKRLDSYLSEITPDYSRSKIQNFIKNGNVTVNDSNKKPSYLLKENDKISFELPQQ | -0.0893 |
| HMENSLLSESLAKIYIKTHRYERAYEILSRLSLAVPEKNAYFADQLRFLRKVMLAESFRKQHS | 0.0207 |
| HMENTSPMTPEQSKALMAYLTKRHGDSREAYLSELSQFFGRPLSSSRELTKADVSEFLNAIN | 0.0561 |
| HMENVVESIYNKMVESITNGQWAAGSKIPTENELAKTYQVSRSSVRQAISRLKALGLLESRQGSGTVIKK | -0.0436 |
| HMENWMPNLVNQDKRLAINTLRELGFTEEAGNLVIREETSEDVTKDYVISTDPVAETDLADVEKVTLVVSS | 0.116 |
| HMENYIEQLTAKNSEYIHVVTRELVKIGKSDEEIKAILSDILPQIVAAQDQRVLAKDILGTPSEFTAKYAP | 0.462 |
| HMEPDDLTVIKGIGPVAAKDLNEQGIITFAQLAKLSDKDVAKIDEHMPFSADQIKDWREQAKELAK | 0.739 |
| HMEPDEIVLDHRKRIENSDAIVLIAPIWNFRMPAILEGWIDKVLAPPWAFKFKKLFGNYGYPVGNLKG | 0.0917 |
| HMEPDTVVVPNFVGKVYASEIEGNEAYSDFTFVIKEGNDPEQDIGVVLKQTPNEGLEVKKGKEITLTINQ | 0.031 |
| HMEPEAKIDFILKAAQKRLGLYGYEKTTMQEIAADINMSKAALYYYFPDKESLFKAVVENEQEEYFH | -1.97 |
| HMEPEDVIAMERYLASGAIKGIGVTLAGRIIKKFQKETFHIIEEEPERLSEVKGISEKLAREIYQQFTQK | -1.11 |
| HMEPERRHLEVPAEAEGERIDRFLASQLENLSRSRIQALIKAGYVRNRRGTIEDPGLRVKPGDAFVVDLPP | 0.354 |
| HMEPEVEITYFKPDERKAGGAYVTVTGAVIKVDDFERLITMQDGTKIPMDDILSIDGELFLS | -0.502 |
| HMEPGEVQVDGLRFIAQPQERNDFEVALEQFRAGNFAAARKSFAAFINTYKQSGYLPSARFW | 0.0135 |
| HMEPLKLGDATGDGKINLQDVLEMQKHMAGILVLKGKFFTAADVNGNGKIELVDVLSVQKYLAGVTAEV | 0.11 |
| HMEPLVSKVFQVSYQKTADLVALIKSEDSKLLSARGTLISDERTSQIFVQDTPTRLERISMIVNGL | -0.889 |
| HMEPMNMYSSIKKVIGVVSGKGGVGKSLVTASLARMMRAKGYHVGIMDADITGPSIPKMYGLHEMA | 0.395 |
| HMEPVDYEALRKELMQKVMGLFTQSRDVGIQILSSFGAKKLSDVPDDKLVAFAASVDKALAG | -0.193 |
